Measured values taken from PMC12318543.
Read-outs that look alike come from different tables or passages of the source.

Columns and labels:
[1] = molecular target: PtuA L81R mutant (Escherichia coli (strain ATCC 25922)); experiment: mass photometry
[2] = molecular target: PtuA (Escherichia coli Septu system) (Escherichia coli (strain ATCC 25922)); experiment: cryo-EM structure
[3] = molecular target: PtuA (Escherichia coli Septu system) (Escherichia coli (strain ATCC 25922)); experiment: cryo-EM structure; remark: listed apart in the source

Row | stoichiometry N [1] | stoichiometry N [2] | stoichiometry N [3] | Substance
1 | 2 |  |  | PtuA L81R mutant (natural protein)
2 |  | 6 | 6 | PtuA (Escherichia coli Septu system) (natural protein)
